In patent US9803019B2, “Carrier immunoglobulins and uses thereof” (Amgen Inc., priority 2010, dated 2017):
Like-named read-outs stand apart in the source and are kept apart here. Where no end group is shown, it is not given here.

T1: huIL-17R (Homo sapiens, UniProt Q96F46)
T1 construct: FLAG (the F of FpH); polyHis (the pH of FpH)
T1 sequence (Q96F46 with tags, fused parts or gaps): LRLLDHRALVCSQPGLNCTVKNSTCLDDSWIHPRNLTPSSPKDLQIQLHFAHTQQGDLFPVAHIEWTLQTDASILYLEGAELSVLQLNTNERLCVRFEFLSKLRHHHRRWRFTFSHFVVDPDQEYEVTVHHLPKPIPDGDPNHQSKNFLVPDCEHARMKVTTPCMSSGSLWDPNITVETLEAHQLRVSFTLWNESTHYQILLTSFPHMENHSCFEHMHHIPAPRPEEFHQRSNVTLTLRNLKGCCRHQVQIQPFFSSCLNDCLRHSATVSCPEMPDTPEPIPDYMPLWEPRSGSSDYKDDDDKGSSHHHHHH

T2: IL-17R (Homo sapiens, UniProt Q96F46)
T2 construct: endogenous in cells; host or cells: human foreskin fibroblasts (HFF)
T2 sequence (Q96F46 33-866): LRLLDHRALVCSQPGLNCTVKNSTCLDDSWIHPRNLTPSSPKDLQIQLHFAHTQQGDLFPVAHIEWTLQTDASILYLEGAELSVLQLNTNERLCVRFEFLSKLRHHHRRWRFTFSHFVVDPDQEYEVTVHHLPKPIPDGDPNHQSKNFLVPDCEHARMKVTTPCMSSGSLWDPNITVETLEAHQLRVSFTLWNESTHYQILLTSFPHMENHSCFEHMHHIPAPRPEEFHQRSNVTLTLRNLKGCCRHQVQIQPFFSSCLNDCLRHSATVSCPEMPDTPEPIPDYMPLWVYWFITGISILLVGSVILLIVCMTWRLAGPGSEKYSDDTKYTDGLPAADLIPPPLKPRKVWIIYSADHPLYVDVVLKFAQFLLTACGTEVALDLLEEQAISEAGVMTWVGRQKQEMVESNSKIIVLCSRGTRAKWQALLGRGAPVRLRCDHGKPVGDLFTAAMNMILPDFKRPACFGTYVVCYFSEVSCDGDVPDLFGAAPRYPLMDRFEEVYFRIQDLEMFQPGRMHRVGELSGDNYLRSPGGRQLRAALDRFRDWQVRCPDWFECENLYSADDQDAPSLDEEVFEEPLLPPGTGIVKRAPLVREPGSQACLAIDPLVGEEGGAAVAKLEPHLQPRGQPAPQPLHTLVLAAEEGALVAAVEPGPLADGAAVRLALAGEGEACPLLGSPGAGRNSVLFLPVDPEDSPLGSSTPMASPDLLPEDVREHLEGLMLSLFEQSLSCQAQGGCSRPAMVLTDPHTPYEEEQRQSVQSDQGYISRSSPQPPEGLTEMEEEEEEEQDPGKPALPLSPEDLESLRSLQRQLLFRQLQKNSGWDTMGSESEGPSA


Tests used:
Kv1.3 = target: T3, Kv1.3 (Homo sapiens, UniProt P22001); assay: Human whole blood assay: thapsigargin-induced IL-2 and IFN-γ secretion; format: cell-based; conditions: for IC50: human whole blood; for Potency Relative to ShK (WB, IL2): ratio of WB IL-2 IC50 to that of ShK(1-35)
T3 construct: endogenous in cells; host or cells: T cells in 50% human whole blood from multiple donors
Protocol: An ex vivo assay was employed to examine impact of toxin peptide analog Kv1.3 inhibitors on secretion of IL-2 and IFN-γ. […] In brief, 50% human whole blood was stimulated with thapsigargin to induce store depletion, calcium mobilization and cytokine secretion. […] After 48 hours at 37° C. and 5% CO2, conditioned medium was collected and the level of cytokine secretion was determined using a 4-spot electrochemiluminescent immunoassay from MesoScale Discovery. […] Kv1.3 is the major voltage-gated potassium channel present on T cells. Allowing for K^+ efflux, Kv1.3 provides the driving force for continued Ca^2+ influx which is necessary for the sustained elevation in intracellular calcium needed for efficient T cell activation and cytokine secretion. […] Therefore, we employed a bioassay whereby the bioactivity of Kv1.3 inhibitors is assessed by examining their ability to block thapsigargin-induced cytokine secretion from T cells in human whole blood.

huIL-17R = target: T1, huIL-17R; assay: BIAcore solution equilibrium binding assay to huIL-17R (16429 immobilized); conditions: for IL-17R binding capability: 10 nM, 100 nM and 1000 nM antibody incubated with 10 nM IL-17R (FIG. 2A); for IL-17R binding activity: 30 μM antibody with 30 nM IL-17R (FIG. 2B)
Protocol: Antibody 16429 was immobilized to a CM5 sensor chip, and 10 nM of IL-17R in the absence of antibody was used to establish the 100% binding signal of […] that is free of antibody binding in solution. In FIG. 2A, 10 nM, 100 nM and 1000 nM of indicated antibody samples were incubated with the 10 nM IL-17R to determine antibody binding in solution. In FIG. 2B, 30,000 nM of the antibody samples were incubated with 30 nM IL-17R to determine antibody binding in solution. In FIGS. 2A-B, The decreased binding signal of IL-17R after the antibody incubation indicates the binding of the antibody to IL-17R in solution.
A reference antigen binding protein (e.g., Antibody 16429 for human IL-17R or Antibody 16449 for human TR2) is immobilized to a BIACore® 2000, research grade sensor chip CM5 surface according to manufacturer's instructions (BIACore, Inc., Piscataway, N.J.). Carboxyl groups on the sensor chip surfaces are activated by injecting 60 μL of a mixture containing 0.2 M N-ethyl-N′-(dimethylaminopropyl) carbodiimide (EDC) and 0.05 M N-hydroxysuccinimide (NHS). The reference antigen binding protein is diluted in 10 mM sodium acetate, pH 4.0 and injected over the activated chip surface at 30 μL/min for 6 minutes. Excess reactive groups on the surfaces are deactivated by injecting 60 μL of 1 M ethanolamine. The final immobilized level is typically approximately 6600 resonance units (RU). Soluble target antigen (e.g., 10 nM of soluble human IL-17R or 30 nM of soluble human TR2) in the absence of soluble antigen binding protein (e.g., antibody) is used to establish the 100% binding signal to the fixed reference antigen binding protein (e.g., the positive control antibody). The decreased binding signal of the target antigen after incubation of the test immunoglobulin indicates its level of binding to the target antigen in solution.
The lead candidates were then selected based on lack of binding to the IL-17R extracellular domain as determined by BIAcore analysis. Antibody 16429 is a human antibody that specifically binds to huIL-17R. A solution equilibrium binding assay was developed to assess the binding activity of a set of antibodies to huIL-17R. Antibody 16429 was immobilized to a BIACore® 2000, research grade sensor chip CM5 surface according to manufacturer's instructions (BIACore, Inc., Piscataway, N.J.). Briefly, carboxyl groups on the sensor chip surfaces were activated by injecting 60 μL of a mixture containing 0.2 M N-ethyl-N′-(dimethylaminopropyl) carbodiimide (EDC) and 0.05 M N-hydroxysuccinimide (NHS). Antibody 16429 was diluted in 10 mM sodium acetate, pH 4.0 and injected over the activated chip surface at 30 μL/min for 6 minutes. Excess reactive groups on the surfaces were deactivated by injecting 60 μL of 1 M ethanolamine. The final immobilized level was approximately 6600 resonance units (RU). As represented in FIG. 2A, 10 nM of IL-17R in the absence of soluble antibody was used to establish the 100% binding signal of IL-17R to the fixed 16429 antibody. To determine antibody binding in solution, 10 nM, 100 nM and 1000 nM of the antibody samples were incubated with the 10 nM IL-17R. The decreased binding signal of IL-17R after the antibody incubation indicates the binding of the antibody to IL-17R in solution.

IL-17R = target: T2, IL-17R; assay: Cell based activity assay: IL-17-induced GRO-α release from human foreskin fibroblasts (sandwich ELISA); conditions: HFF, 5 ng/ml IL-17; 0.1, 1 and 10 μM antibody (FIG. 3)
Protocol: The conditioned cell medium was then assessed for GRO-α levels using a GRO-α sandwich ELISA.
Interaction of IL-17 with the IL-17R on cells induces the production of various factors, including growth-related oncogene alpha (GRO-α), from these cells. A cell-based characterization assay was developed to measure GRO-α released using sandwich ELISA. In this ELISA, a GRO-α capture antibody is utilized to bind GRO-α, and then a biotinylated GRO-α detection antibody is used to detect the captured protein. Streptavidin conjugated to horseradish peroxidise (HRP) is then added to detect the amount of biotinylated GRO-α detection antibody bound. The amount of HRP bound is measured by evaluation of absorbance at 450 nm. An increase in absorbance at 450 nm is indicative of an increase in the amount of GRO-α produced. In this assay, human foreskin fibroblasts (HFF) are incubated with 5 ng/ml IL-17 and 0.1 μM, 1 μM and 10 μM of antibody samples. The conditioned cell medium is then harvested and processed for assessment of GRO-α levels using a GRO-α sandwich ELISA.

T3 sequence (P22001 whole entry): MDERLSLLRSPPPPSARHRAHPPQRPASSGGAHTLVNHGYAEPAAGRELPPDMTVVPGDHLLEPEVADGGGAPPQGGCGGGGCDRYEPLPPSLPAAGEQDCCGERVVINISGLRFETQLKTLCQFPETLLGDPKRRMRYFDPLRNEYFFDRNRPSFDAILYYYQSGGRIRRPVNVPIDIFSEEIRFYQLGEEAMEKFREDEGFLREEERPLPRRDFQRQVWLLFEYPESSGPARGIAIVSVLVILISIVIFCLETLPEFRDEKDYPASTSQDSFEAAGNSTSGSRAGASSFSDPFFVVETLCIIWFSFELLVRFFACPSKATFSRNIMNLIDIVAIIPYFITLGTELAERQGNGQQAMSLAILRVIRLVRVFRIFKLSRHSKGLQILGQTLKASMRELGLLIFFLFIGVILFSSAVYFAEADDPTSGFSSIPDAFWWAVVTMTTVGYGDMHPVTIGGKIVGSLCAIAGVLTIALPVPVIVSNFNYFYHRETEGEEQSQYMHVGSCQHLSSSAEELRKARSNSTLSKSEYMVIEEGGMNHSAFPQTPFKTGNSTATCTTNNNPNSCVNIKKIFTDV

Molecule | IC50 (Kv1.3; IFNg, read-out: WB (IFNg) IC50) | IC50 (Kv1.3; IL-2, read-out: WB (IL-2) IC50) | Potency Relative to ShK (WB, IL2) (Kv1.3) | IL-17R binding capability (huIL-17R) | IL-17R binding activity (huIL-17R) | blocking activity on IL-17-induced GRO-α production (IL-17R)
20 kDa-PEG-ShK: N-terminally 20 kDa PEGylated ShK, SEQ ID NO:380 | 840 pM | 380 pM | – | – | – | –
Bivalent Fc-L10-ShK[1-35] homodimer: IgG1 Fc peptibody, Example 1 of WO2008/088422 A2 (GGGGSGGGGSRSCIDTIPKSRCTAFQCKHSMKYRLSFCRKTCGTC; ends and bridges not checked; also: Fc fusion homodimer, Fc domain not in chain) | 320 pM | 386 pM | 5.76 | – | – | –
Bivalent Fc-L10-ShK[2-35] homodimer: IgG1 Fc peptibody, Example 2 of WO2008/088422 A2 (GGGGSGGGGSSCIDTIPKSRCTAFQCKHSMKYRLSFCRKTCGTC; ends and bridges not checked; also: Fc fusion homodimer, Fc domain not in chain) | 2280 pM | 585 pM | 8.73 | – | – | –
16438 (antibody, V domains shown) VH: QVQLVQSGAEVKKPGASVKVSCKASGYTFTRYGISWVRQAPGQGLEWMGWISTYSGNTNYAQKLQGRVTMTTDTSTSTAYMELRSLRSDDTAVYYCARRQQYFDYWGQGTLVTVSS VL: EIVMTQSPATLSVSPGERATLSCRASQSVSSNLAWFQQKPGQAPRLLIYDASTRATGVPARFSGSGSGTEFTLTISSLQSEDFAVYYCQQYDNWPLTFGGGTKVEIK | – | – | – | substantial reduction in IL-17R binding capability | no significant IL-17R binding activity | no significant blocking activity
16441 (antibody, V domains shown) VH: QVQLVQSGAEVKKPGASVKVSCKASGYTFTRYGISWVRQAPGQGLEWMGWISTYSGNTNYAQKLQGRVTMTTDTSTSTAYMELRSLRSDDTAVYYCARAQQYFDYWGQGTLVTVSS VL: EIVMTQSPATLSVSPGERATLSCRASQSVSSNLAWFQQKPGQAPRLLIYDASTRATGVPARFSGSGSGTEFTLTISSLQSEDFAVYYCQQYDNWPLTFGGGTKVEIK | – | – | – | substantial reduction in IL-17R binding capability | no significant IL-17R binding activity | no significant blocking activity
16440 (antibody, V domains shown) VH: QVQLVQSGAEVKKPGASVKVSCKASGYTFTRYGISWVRQAPGQGLEWMGWISTYSGNTNYAQKLQGRVTMTTDTSTSTAYMELRSLRSDDTAVYYCARAQQYFDYWGQGTLVTVSS VL: EIVMTQSPATLSVSPGERATLSCRASQSVSSNLAWFQQKPGQAPRPLIYDASTRATGVPARFSGSGSGTDFTLTISSLQSEDFAVYYCQQYDNWPLTFGGGTKVEIK | – | – | – | substantial reduction in IL-17R binding capability | no significant IL-17R binding activity | no significant blocking activity
16439 (antibody, V domains shown) VH: QVQLVQSGAEVKKPGASVKVSCKASGYTFTRYGISWVRQAPGQGLEWMGWISTYSGNTNYAQKLQGRVTMTTDTSTSTAYMELRSLRSDDTAVYYCARRQQYFDYWGQGTLVTVSS VL: EIVMTQSPATLSVSPGERATLSCRASQSVSSNLAWFQQKPGQAPRLLIYDASTRATGVPARFSGSGSGTEFTLTISSLQSEDFAVYYCQQYDNAPLTFGGGTKVEIK | – | – | – | substantial reduction in IL-17R binding capability | no significant IL-17R binding activity | no significant blocking activity
